# T1: EGFI-Cr1 Q47A (human, UniProt P16422 24-63)
# T1 construct: not shown: the constant region of human immunoglobulin gamma 1 heavy chain (Cr1) fused at the C-terminus
# T1 chain: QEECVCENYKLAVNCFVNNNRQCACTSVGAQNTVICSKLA
# T2: EGFI-Cr1 E26D (human, UniProt P16422 24-63)
# T2 construct: not shown: The fused constant region of human immunoglobulin gamma 1 heavy chain (Cr1)
# T2 chain: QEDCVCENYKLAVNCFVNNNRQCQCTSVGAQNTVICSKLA
# T3: EGFI-Cr1 Q45A (human, UniProt P16422 24-63)
# T3 construct: not shown: the constant region of human immunoglobulin gamma 1 heavy chain (Cr1) fused at the C-terminus
# T3 chain: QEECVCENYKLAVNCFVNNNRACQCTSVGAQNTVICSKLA
# T4: EGFI-Cr1 V40E (human)
# T4 construct: not shown: The fused constant region of human immunoglobulin gamma 1 heavy chain (Cr1)
# T4 chain: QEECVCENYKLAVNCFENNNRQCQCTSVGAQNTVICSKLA
# T5: EGFI-Cr1 T49A (human, UniProt P16422 24-63)
# T5 construct: not shown: the constant region of human immunoglobulin gamma 1 heavy chain (Cr1) fused at the C-terminus
# T5 chain: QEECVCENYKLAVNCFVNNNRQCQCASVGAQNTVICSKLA
# T6: EGFI-Cr1 N43A (human, UniProt P16422 24-63)
# T6 construct: not shown: the constant region of human immunoglobulin gamma 1 heavy chain (Cr1) fused at the C-terminus
# T6 chain: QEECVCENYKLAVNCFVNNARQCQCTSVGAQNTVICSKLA
# T7: EGFI-Cr1 N41A (human, UniProt P16422 24-63)
# T7 construct: not shown: The fused constant region of human immunoglobulin gamma 1 heavy chain (Cr1)
# T7 chain: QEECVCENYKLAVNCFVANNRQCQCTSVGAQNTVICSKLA
# T8: EGFI-Cr1 N37R (human)
# T8 construct: not shown: The fused constant region of human immunoglobulin gamma 1 heavy chain (Cr1)
# T8 chain: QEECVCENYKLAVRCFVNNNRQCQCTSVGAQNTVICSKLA
# T9: EGFI-Cr1 E25K (human, UniProt P16422 24-63)
# T9 construct: not shown: The fused constant region of human immunoglobulin gamma 1 heavy chain (Cr1)
# T9 chain: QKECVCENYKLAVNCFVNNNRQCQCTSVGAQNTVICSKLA
# T10: EGFI-Cr1 Q24A (human, UniProt P16422 25-63)
# T10 construct: not shown: The fused constant region of human immunoglobulin gamma 1 heavy chain (Cr1)
# T10 chain: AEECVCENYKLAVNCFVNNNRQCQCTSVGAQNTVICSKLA
# T11: EGFI-Cr1 F39A (human, UniProt P16422 24-63)
# T11 construct: not shown: The fused constant region of human immunoglobulin gamma 1 heavy chain (Cr1)
# T11 chain: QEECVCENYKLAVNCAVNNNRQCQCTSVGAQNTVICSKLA
# T12: EGFI-Cr1 N42E (human, UniProt P16422 24-63)
# T12 construct: not shown: the constant region of human immunoglobulin gamma 1 heavy chain (Cr1) fused at the C-terminus
# T12 chain: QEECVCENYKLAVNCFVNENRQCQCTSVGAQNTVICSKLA
# T13: EGFI-Cr1 A35T (human, UniProt P16422 24-63)
# T13 construct: not shown: The fused constant region of human immunoglobulin gamma 1 heavy chain (Cr1)
# T13 chain: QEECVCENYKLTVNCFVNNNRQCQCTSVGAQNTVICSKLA
# T14: EGFI-Cr1 R44G (human, UniProt P16422 24-63)
# T14 construct: not shown: the constant region of human immunoglobulin gamma 1 heavy chain (Cr1) fused at the C-terminus
# T14 chain: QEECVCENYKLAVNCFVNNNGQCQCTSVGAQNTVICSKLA
# T15: human EpCAM (epithelial cell adhesion/activating molecule) (human, UniProt P16422 24-314)
# T15 construct: also called hEpCAM; CHO/EpCAM
# T15 sequence: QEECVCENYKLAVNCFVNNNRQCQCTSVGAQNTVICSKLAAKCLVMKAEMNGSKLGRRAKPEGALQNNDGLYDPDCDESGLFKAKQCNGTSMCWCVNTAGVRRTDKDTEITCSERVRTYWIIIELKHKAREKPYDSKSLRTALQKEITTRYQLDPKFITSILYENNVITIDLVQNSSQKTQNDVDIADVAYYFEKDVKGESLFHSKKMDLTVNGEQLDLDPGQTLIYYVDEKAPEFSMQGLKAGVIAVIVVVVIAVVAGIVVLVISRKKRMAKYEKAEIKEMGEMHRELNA
# Assays:
# EGFI-Cr1 Q47A = target: T1, EGFI-Cr1 Q47A; test: direct ELISA, coated EGFI-Cr1 fusion, 0.1 µg/ml antibody
# Method: (§1) A direct ELISA was used for testing the reactivity of anti-EpCAM antibodies toward variant EpCAM mutants. Briefly, purified EpCAM EGF-1 fusion proteins (WT, Q24A, E25K, E26D, A35T, N37R, F39A, V40E, N41A, N42E, N43A, R44G, Q45A, Q47A or T49A) and irrelevant control (CEA-Cr1) were pre-diluted to 0.5 μg/ml in coating buffer (8.4 g NaHCO₃, 3.4 g Na₂CO₃ in 1 L H₂O, pH 9.5) and aliquoted (100 μl/well) into 96-well plates. […] Plates were then washed 3 times with PBST followed by the addition of the enzyme substrate TMB (BD Biosciences, Cat. No. 555214). […] The optical densities at 450 nm wavelength were measured on an ELISA plate reader.
# [1] = target: T16, EGFI-Cr1 wild type (first EGF-like repeat of human EpCAM fused to the constant region of human immunoglobulin … (human, UniProt P01857-1 99-330 = IgG part)); test: as above
# T16 construct: cDNA covered aa 1-63; Expressed in COS-7 cells; also called WT; EpCAM EGF-1 fusion protein WT
# Method: as §1
# EGFI-Cr1 E26D = target: T2, EGFI-Cr1 E26D; test: as above
# Method: as §1
# EGFI-Cr1 Q45A = target: T3, EGFI-Cr1 Q45A; test: as above
# Method: as §1
# EGFI-Cr1 V40E = target: T4, EGFI-Cr1 V40E; test: as above
# Method: as §1
# EGFI-Cr1 T49A = target: T5, EGFI-Cr1 T49A; test: as above
# Method: as §1
# EGFI-Cr1 N43A = target: T6, EGFI-Cr1 N43A; test: as above
# Method: as §1
# EGFI-Cr1 N41A = target: T7, EGFI-Cr1 N41A; test: as above
# Method: as §1
# EGFI-Cr1 N37R = target: T8, EGFI-Cr1 N37R; test: as above
# Method: as §1
# EGFI-Cr1 E25K = target: T9, EGFI-Cr1 E25K; test: as above
# Method: as §1
# EGFI-Cr1 Q24A = target: T10, EGFI-Cr1 Q24A; test: as above
# Method: as §1
# EGFI-Cr1 F39A = target: T11, EGFI-Cr1 F39A; test: as above
# Method: as §1
# EGFI-Cr1 N42E = target: T12, EGFI-Cr1 N42E; test: as above
# Method: as §1
# EGFI-Cr1 A35T = target: T13, EGFI-Cr1 A35T; test: as above
# Method: as §1
# EGFI-Cr1 R44G = target: T14, EGFI-Cr1 R44G; test: as above
# Method: as §1
# [2] = target: T15, human EpCAM (epithelial cell …); test: flow cytometry, CHO/EpCAM cells, 0.1 µg/ml antibody
# Method: A 300× dilution of human cell hyper-immune serum (HPS 300×) was used as binding positive control for both cell lines here. After 1 hr incubation at 4° C., cells were washed twice with 200 μl FACS buffer (1×PBS containing 1% FBS), stained with 100 μl of 1 μg/ml goat-anti-mouse IgG-PE (Southern Biotech, Cat. No. 1032-09) in FACS buffer and then incubated at 4° C. for 30 min. Cells were washed thrice with FACS buffer and analyzed by flow cytometry (BD LSR, BD Life Sciences).
# [3] = target: T15, human EpCAM (epithelial cell …); test: cell-based or functional assay
# [4] = target: T15, human EpCAM (epithelial cell …); test: cell-based or functional assay; remark: listed apart in the source
binder,measurement,setting,value
"murine monoclonal antibody 6D11 (antibody, mouse IgG1, V domains shown, Mouse IgG1, kappa, from hybridoma; also called m338-6D11.8) VH: EVQLVESGGDLVKPGGSLKLSCAASGFAFDSYGMSWIRQTPGTRLEWVATISSGGYYTYYEDNVKGRFIISRDNAKNTLDLQMSGLKSEDAATYYCARRGNYDVDYYAMDYWGQGTSVIVSS VL: DVVLTQIPLSLPVSLGDQASISCRSSQSLEHSNGNTYLHWYLQKPGQSPKLLIYKVSNRFSGVPDRFSGSGSGTDFTLKISRVEAEDLGVYFCSQSTHVPPWTFGGGTKLEFKR",relative binding activity (% of WT),EGFI-Cr1 Q47A,33%
same,relative binding activity (% of WT),[1],100%
same,relative binding activity (% of WT),EGFI-Cr1 E26D,57%
same,relative binding activity (% of WT),EGFI-Cr1 Q45A,8%
same,relative binding activity (% of WT),EGFI-Cr1 V40E,2%
same,relative binding activity (% of WT),EGFI-Cr1 T49A,67%
same,relative binding activity (% of WT),EGFI-Cr1 N43A,65%
same,relative binding activity (% of WT),EGFI-Cr1 N41A,2%
same,relative binding activity (% of WT),EGFI-Cr1 N37R,69%
same,relative binding activity (% of WT),EGFI-Cr1 E25K,4%
same,relative binding activity (% of WT),EGFI-Cr1 Q24A,47%
same,relative binding activity (% of WT),EGFI-Cr1 F39A,23%
same,relative binding activity (% of WT),EGFI-Cr1 N42E,83%
same,relative binding activity (% of WT),EGFI-Cr1 A35T,39%
same,relative binding activity (% of WT),EGFI-Cr1 R44G,2%
same,MFI,[2],1350 MFI
same,"% of Annexin V + PI staining (untreated background subtracted), NCI-H358, 10 µg/ml mAb, Exp1",[3],45%
same,"% of Annexin V + PI staining (untreated background subtracted), NCI-H358, 10 µg/ml mAb, Exp2",[3],40%
same,"% of Annexin V + PI staining (untreated background subtracted), NCI-H358, 10 µg/ml mAb, Exp3",[3],44%
same,"% of Annexin V + PI staining (untreated background subtracted), NCI-H358, 10 µg/ml mAb, Exp4",[3],43%
same,"% of Annexin V + PI staining (untreated background subtracted), NCI-H358, 10 µg/ml mAb, Exp5",[3],40%
same,"% Annexin V/PI-positive cells, DLD-1, 1.0 µg/ml mAb",[4],28%
same,"% Annexin V/PI-positive cells, DLD-1, 3.0 µg/ml mAb",[4],53%
same,"% Annexin V/PI-positive cells, DLD-1, 10 µg/ml mAb",[4],62%
same,"% Annexin V/PI-positive cells, FaDu, 1.0 µg/ml mAb",[4],26%
same,"% Annexin V/PI-positive cells, FaDu, 3.0 µg/ml mAb",[4],39%
same,"% Annexin V/PI-positive cells, FaDu, 10 µg/ml mAb",[4],37%
same,"% Annexin V/PI-positive cells, LNCaP, 1.0 µg/ml mAb",[4],38%
same,"% Annexin V/PI-positive cells, LNCaP, 3.0 µg/ml mAb",[4],43%
same,"% Annexin V/PI-positive cells, LNCaP, 10 µg/ml mAb",[4],44%
same,"% Annexin V/PI-positive cells, NCI-H520, 1.0 µg/ml mAb",[4],38%
same,"% Annexin V/PI-positive cells, NCI-H520, 3.0 µg/ml mAb",[4],42%
same,"% Annexin V/PI-positive cells, NCI-H520, 10 µg/ml mAb",[4],49%
same,"% Annexin V/PI-positive cells, NCI-N87, 1.0 µg/ml mAb",[4],41%
same,"% Annexin V/PI-positive cells, NCI-N87, 3.0 µg/ml mAb",[4],51%
same,"% Annexin V/PI-positive cells, NCI-N87, 10 µg/ml mAb",[4],57%
same,"% Annexin V/PI-positive cells, NIH:OVCAR-3, 1.0 µg/ml mAb",[4],46%
same,"% Annexin V/PI-positive cells, NIH:OVCAR-3, 3.0 µg/ml mAb",[4],52%
same,"% Annexin V/PI-positive cells, NIH:OVCAR-3, 10 µg/ml mAb",[4],55%
same,"% Annexin V/PI-positive cells, T-47D, 1.0 µg/ml mAb",[4],25%
same,"% Annexin V/PI-positive cells, T-47D, 3.0 µg/ml mAb",[4],40%
same,"% Annexin V/PI-positive cells, T-47D, 10 µg/ml mAb",[4],44%

# Source: patent US20110165161A1, “ANTI-EPCAM ANTIBODIES THAT INDUCE APOPTOSIS OF CANCER CELLS AND METHODS USING SAME” (priority 2009, published 2011)
